The assay has as its target cAMP-responsive element binding protein CREB-1 (UniProt P16220 1-327). Kind of assay: cell-based or functional assay.

Sequence of cAMP-responsive element binding protein CREB-1 (P16220 whole entry): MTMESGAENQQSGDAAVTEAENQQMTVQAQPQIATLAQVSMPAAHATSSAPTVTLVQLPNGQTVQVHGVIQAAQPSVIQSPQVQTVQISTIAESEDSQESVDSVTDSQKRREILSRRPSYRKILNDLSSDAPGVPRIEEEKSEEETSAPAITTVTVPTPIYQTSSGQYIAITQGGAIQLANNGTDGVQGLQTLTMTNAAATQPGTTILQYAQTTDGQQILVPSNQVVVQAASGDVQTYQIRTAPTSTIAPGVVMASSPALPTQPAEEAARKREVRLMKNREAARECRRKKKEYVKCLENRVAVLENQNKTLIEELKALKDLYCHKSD

B1: human Foxp3 (natural protein, UniProt Q9BZS1 1-431, looked up)
chain: MPNPRPGKPSAPSLALGPSPGASPSWRAAPKASDLLGARGPGGTFQGRDLRGGAHASSSSLNPMPPSQLQLPTLPLVMVAPSGARLGPLPHLQALLQDRPHFMHQLSTVDAHARTPVLQVHPLESPAMISLTPPTTATGVFSLKARPGLPPGINVASLEWVSREPALLCTFPNPSAPRKDSTLSAVPQSSYPLLANGVCKWPGCEKVFEEPEDFLKHCQADHLLDEKGRAQCLLQREMVQSLEQQLVLEKEKLSAMQAHLAGKMALTKASSVASSDKGSCCIVAAGSQGPVVPAWSGPREAPDSLFAVRRHLWGSHGNSTFPEFLHNMDYFKFHNMRPPFTYATLIRWAILEAPEKQRTLNEIYHWFTRMFAFFRNHPATWKNAIRHNLSLHKCFVRVESEKGAVWTVDELEFRKKRSQRPSRCSNPTPGP
As for B1, the “basal levels of Gal4-BD-CREB-1 activation of a Gal4 luciferase reporter in HEK 293T cells with Foxp3 overexpressed (Figure 7C)” value is over 2 fold.
